Tests used:
[1] = Thermal unfolding by circular dichroism and nano-differential scanning fluorimetry; type: physicochemical; settings: circular dichroism thermal ramping (20-70 °C, 220 nm) and nanoDSF (0.35 mg ml^−1, 1 °C min^−1); 25 mM phosphate pH 7.5, 150 mM NaF; triplicates
Method: Thermal unfolding coupled to CD was performed between 20 °C and 70 °C with a measure in triplicate every 5 °C increment. Millidegree values at 220 nm were plotted against their temperature and the melting temperature calculated using a Boltzmann sigmoidal equation.
Melting temperatures were measured by Nano differential scanning fluorimetry using a Prometheus NT.48 (Nanotemper). Tryptophan intrinsic fluorescence emission was recorded at 330 and 350 nm with 30% excitation power during thermal ramping from 20 to 90 °C (1 °C min^−1). 10 μl of proteins in 25 mM phosphate buffer (pH 7.5), 150 mM NaF and at a concentration of 0.35 mg ml^−1 were loaded in nanoDSF grade standard capillaries. Samples were measured in triplicates and the calculated melting temperatures averaged. Melting temperature were calculated by the software PR.ThermControl.

[2] = Native MS of purified individual proteins (oligomeric state); type: physicochemical; settings: Pex5p 7.5 µM, Pcs60p 5 µM; 200 mM ammonium acetate pH 6.8
Method: Recombinantly expressed Pex5p variants and Pcs60p protein solutions were buffer-exchanged into 200 mM ammonium acetate pH 6.8 at 4 °C using microcentrifuge gel filtration columns Bio-Spin 6 (Bio-Rad Laboratories). Protein concentration was determined spectrophotometrically using a Nanodrop 2000c (Thermo Scientific) by measuring absorption at 280 nm. Proteins were either analyzed individually or as mixture of Pex5p variant with Pcs60p at indicated concentrations to study receptor-cargo complex formation. For this, Pex5p^WT or Pex5p^2D mutant was incubated with Pcs60p for 5 min on ice. Spectra were obtained using a Synapt HDMS (Waters and MS Vision) equipped with an m/z 32,000 range quadrupole by introducing 3 µl sample with an in-house manufactured gold-coated capillary needle (Brosilicate Thin Wall with Filament Clark Capillary Glass, OD 1.0 mm, ID 0.78 mm; Harvard Apparatus). […]
Spectra were calibrated externally using cesium iodide. […] Quantification of complex abundances was performed based on area under signals using a similar approach as previously described ([Danquah et al. 2019]; [Yefremova et al. 2017]). To compare stabilities of receptor-cargo complexes for Pex5p^WT and Pex5p^2D the collisional activation was quantified by calculating center-of-mass energies (E com) based on the abundance-weighted mean charge states of the 1:1 complex for each acceleration voltage. […]

B1: Pex5p^WT: Pex5p wildtype, PTS1 receptor of S. cerevisiae (protein)
chain: MDVGSCSVGNNPLAQLHKHTQQNKSLQFNQKNNGRLNESPLQGTNKPGISEAFISNVNAISQENMANMQRFINGEPLIDDKRRMEIGPSSGRLPPFSNVHSLQTSANPTQIKGVNDISHWSQEFQGSNSIQNRNADTGNSEKAWQRGSTTASSRFQYPNTMMNNYAYASMNSLSGSRLQSPAFMNQQQSGRSKEGVNEQEQQPWTDQFEKLEKEVSENLDINDEIEKEENVSEVEQNKPETVEKEEGVYGDQYQSDFQEVWDSIHKDAEEVLPSELVNDDLNLGEDYLKYLGGRVNGNIEYAFQSNNEYFNNPNAYKIGCLLMENGAKLSEAALAFEAAVKEKPDHVDAWLRLGLVQTQNEKELNGISALEECLKLDPKNLEAMKTLAISYINEGYDMSAFTMLDKWAETKYPEIWSRIKQQDDKFQKEKGFTHIDMNAHITKQFLQLANNLSTIDPEIQLCLGLLFYTKDDFDKTIDCFESALRVNPNDELMWNRLGASLANSNRSEEAIQAYHRALQLKPSFVRARYNLAVSSMNIGCFKEAAGYLLSVLSMHEVNTNNKKGDVGSLLNTYNDTVIETLKRVFIAMNRDDLLQEVKPGMDLKRFKGEFSF
modifications: left off: His6, N-terminal, state not stated
notes: Pex5p wildtype, PTS1 receptor of S. cerevisiae
- melting temperature [1]: approximately 46 °C
- oligomeric state in native MS [2]: mainly detected in a monomeric state
